Drawing on publication PMC6754583, this text covers mean dwell time between stem transitions (fits to individual datasets), mean dwell time between stem transitions (global fit) and midpoint force F1/2 of stem opening for one substance.

In this assay the target is full-length von Willebrand factor (VWF) dimer, hetero-bifunctional construct (UniProt P04275). The experiment in a line: magnetic tweezers single-molecule force spectroscopy.

“full-length von Willebrand factor (VWF) dimer, hetero-bifunctional construct (from UniProt P04275 764-2813; P04275 764-2813) (natural protein)” registered a mean dwell time between stem transitions (fits to individual datasets) of 0.28 s, a mean dwell time between stem transitions (global fit) of 0.28 s and a midpoint force F1/2 of stem opening of 1 pN.
